B1: N-terminal HA-tagged inactive MAPKAPK3 (T201A/T313A) (protein)
chain: MDGETAEEQGGPVPPPVAPGGPGLGGAPGGRREPKKYAVTDDYQLSKQVLGLGVNGKVLECFHRRTGQKCALKLLYDSPKARQEVDHHWQASGGPHIVCILDVYENMHHGKRCLLIIMECMEGGELFSRIQERGDQAFTEREAAEIMRDIGTAIQFLHSHNIAHRDVKPENLLYTSKEKDAVLKLTDFGFAKETTQNALQAPCYTPYYVAPEVLGPEKYDKSCDMWSLGVIMYILLCGFPPFYSNTGQAISPGMKRRIRLGQYGFPNPEWSEVSEDAKQLIRLLLKTDPTERLTITQFMNHPWINQSMVVPQAPLHTARVLQEDKDHWDEVKEEMTSALATMRVDYDQVKIKDLKTSNNRLLNKRRKKQAGSSSASQGCNNQ
B2: GST fusion inactive MAPKAPK3 (T201A/T313A) (protein)
chain: MDGETAEEQGGPVPPPVAPGGPGLGGAPGGRREPKKYAVTDDYQLSKQVLGLGVNGKVLECFHRRTGQKCALKLLYDSPKARQEVDHHWQASGGPHIVCILDVYENMHHGKRCLLIIMECMEGGELFSRIQERGDQAFTEREAAEIMRDIGTAIQFLHSHNIAHRDVKPENLLYTSKEKDAVLKLTDFGFAKETTQNALQAPCYTPYYVAPEVLGPEKYDKSCDMWSLGVIMYILLCGFPPFYSNTGQAISPGMKRRIRLGQYGFPNPEWSEVSEDAKQLIRLLLKTDPTERLTITQFMNHPWINQSMVVPQAPLHTARVLQEDKDHWDEVKEEMTSALATMRVDYDQVKIKDLKTSNNRLLNKRRKKQAGSSSASQGCNNQ
B3: N-terminal HA-tagged MAPKAPK3 (protein)
chain: MDGETAEEQGGPVPPPVAPGGPGLGGAPGGRREPKKYAVTDDYQLSKQVLGLGVNGKVLECFHRRTGQKCALKLLYDSPKARQEVDHHWQASGGPHIVCILDVYENMHHGKRCLLIIMECMEGGELFSRIQERGDQAFTEREAAEIMRDIGTAIQFLHSHNIAHRDVKPENLLYTSKEKDAVLKLTDFGFAKETTQNALQTPCYTPYYVAPEVLGPEKYDKSCDMWSLGVIMYILLCGFPPFYSNTGQAISPGMKRRIRLGQYGFPNPEWSEVSEDAKQLIRLLLKTDPTERLTITQFMNHPWINQSMVVPQTPLHTARVLQEDKDHWDEVKEEMTSALATMRVDYDQVKIKDLKTSNNRLLNKRRKKQAGSSSASQGCNNQ
B4: N-terminal HA-tagged active MAPKAPK3 (T201E/T313E) (protein)
chain: MDGETAEEQGGPVPPPVAPGGPGLGGAPGGRREPKKYAVTDDYQLSKQVLGLGVNGKVLECFHRRTGQKCALKLLYDSPKARQEVDHHWQASGGPHIVCILDVYENMHHGKRCLLIIMECMEGGELFSRIQERGDQAFTEREAAEIMRDIGTAIQFLHSHNIAHRDVKPENLLYTSKEKDAVLKLTDFGFAKETTQNALQEPCYTPYYVAPEVLGPEKYDKSCDMWSLGVIMYILLCGFPPFYSNTGQAISPGMKRRIRLGQYGFPNPEWSEVSEDAKQLIRLLLKTDPTERLTITQFMNHPWINQSMVVPQEPLHTARVLQEDKDHWDEVKEEMTSALATMRVDYDQVKIKDLKTSNNRLLNKRRKKQAGSSSASQGCNNQ
B5: GST fusion MAPKAPK3 (N-terminal GST fusion human MAPKAPK3) (protein)
chain: MDGETAEEQGGPVPPPVAPGGPGLGGAPGGRREPKKYAVTDDYQLSKQVLGLGVNGKVLECFHRRTGQKCALKLLYDSPKARQEVDHHWQASGGPHIVCILDVYENMHHGKRCLLIIMECMEGGELFSRIQERGDQAFTEREAAEIMRDIGTAIQFLHSHNIAHRDVKPENLLYTSKEKDAVLKLTDFGFAKETTQNALQTPCYTPYYVAPEVLGPEKYDKSCDMWSLGVIMYILLCGFPPFYSNTGQAISPGMKRRIRLGQYGFPNPEWSEVSEDAKQLIRLLLKTDPTERLTITQFMNHPWINQSMVVPQTPLHTARVLQEDKDHWDEVKEEMTSALATMRVDYDQVKIKDLKTSNNRLLNKRRKKQAGSSSASQGCNNQ
B6: GST fusion active MAPKAPK3 (T201E/T313E) (protein)
chain: MDGETAEEQGGPVPPPVAPGGPGLGGAPGGRREPKKYAVTDDYQLSKQVLGLGVNGKVLECFHRRTGQKCALKLLYDSPKARQEVDHHWQASGGPHIVCILDVYENMHHGKRCLLIIMECMEGGELFSRIQERGDQAFTEREAAEIMRDIGTAIQFLHSHNIAHRDVKPENLLYTSKEKDAVLKLTDFGFAKETTQNALQEPCYTPYYVAPEVLGPEKYDKSCDMWSLGVIMYILLCGFPPFYSNTGQAISPGMKRRIRLGQYGFPNPEWSEVSEDAKQLIRLLLKTDPTERLTITQFMNHPWINQSMVVPQEPLHTARVLQEDKDHWDEVKEEMTSALATMRVDYDQVKIKDLKTSNNRLLNKRRKKQAGSSSASQGCNNQ

target: HSP27 (small heat shock protein 27), P04792
Sequence (P04792 whole entry): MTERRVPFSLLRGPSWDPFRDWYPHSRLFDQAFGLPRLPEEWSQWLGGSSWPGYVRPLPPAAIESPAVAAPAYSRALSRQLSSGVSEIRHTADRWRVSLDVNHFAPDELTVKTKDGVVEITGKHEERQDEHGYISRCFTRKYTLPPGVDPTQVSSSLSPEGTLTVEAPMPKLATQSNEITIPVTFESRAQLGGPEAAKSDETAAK

Row | Protein | kinase activity (immune-complex kinase assay, phosphorylation of HSP27) | kinase activity (phosphorylation of HSP27 with [gamma-32P]ATP, autoradiography)
1 | B1 | the kinase activity was observed only in an active MAPKAPK3 | 
2 | B2 |  | the kinase activity was observed only in an active MAPKAPK3
3 | B3 | the kinase activity was observed only in an active MAPKAPK3 | 
4 | B4 | the kinase activity was observed only in an active MAPKAPK3 | 
5 | B5 |  | the kinase activity was observed only in an active MAPKAPK3
6 | B6 |  | the kinase activity was observed only in an active MAPKAPK3
